Data from patent publication US20240392024A1 (SHANGHAI CELGEN BIO PHARMACEUTICAL, published 2024).
Several values for one entry are separate records, joined by “and”; a condition that tells them apart may be missing. Equal entries are not always repeated.

T1: TNFR2-His (Sino Biological, 10417-H08H, NP_001057.1 Met1-Asp257, with multi-histidine tag expressed on … (human, UniProt P20333 23-257))
T1 construct: range 1-257; Bought protein; also called recombinant human TNFR2 protein; TNFR2-His antigen; not shown: C-terminal multi-histidine tag
T1 sequence (looked up): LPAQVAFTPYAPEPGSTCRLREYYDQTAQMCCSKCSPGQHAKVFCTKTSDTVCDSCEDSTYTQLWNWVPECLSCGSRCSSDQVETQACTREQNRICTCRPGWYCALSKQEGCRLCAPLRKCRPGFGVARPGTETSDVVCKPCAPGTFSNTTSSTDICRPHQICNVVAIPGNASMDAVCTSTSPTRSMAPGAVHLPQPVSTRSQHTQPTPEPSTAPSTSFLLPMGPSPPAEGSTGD

T2: human TNFR2 on the cell membrane (human, UniProt P20333 23-461)
T2 construct: whole, on cells; One molecule for all cell formats; also called TNFR2-CHO cells; CHO-TNFR2
T2 sequence (looked up): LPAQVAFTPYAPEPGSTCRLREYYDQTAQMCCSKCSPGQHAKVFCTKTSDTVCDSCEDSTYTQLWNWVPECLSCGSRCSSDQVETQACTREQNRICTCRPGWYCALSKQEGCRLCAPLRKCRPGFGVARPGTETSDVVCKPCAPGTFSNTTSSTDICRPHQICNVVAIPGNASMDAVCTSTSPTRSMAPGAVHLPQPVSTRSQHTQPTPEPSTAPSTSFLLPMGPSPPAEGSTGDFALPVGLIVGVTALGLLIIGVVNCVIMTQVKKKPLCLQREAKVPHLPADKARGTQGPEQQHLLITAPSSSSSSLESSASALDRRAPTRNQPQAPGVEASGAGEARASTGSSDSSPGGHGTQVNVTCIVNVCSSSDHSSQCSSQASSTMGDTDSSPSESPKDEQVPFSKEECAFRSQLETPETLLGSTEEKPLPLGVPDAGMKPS

B1: human-mouse chimeric TNFR2 monoclonal antibody 12E12-hFc (antibody, V domains shown)
VH: EVQLQQSGAELVKPGASVKLSCTVSGFNIKDFYIHWVKQRPEQGLEWIGRVDPEDGNTEYAPNFQDRATMTTDTSSNTAYLQLSSLTSVDTAVYYCSTWDGFSYFDYWGLGTTLTVSS
VL: QAVVTQESALTTSPGETVTLTCRSSTGPVTTNNYANWVQEKPDHLFTGLIGGTNDRAPGVPARFSGSLIGDKTALTITGTQTEDEAVYFCALWYRNHWVFGGGTKLTVL
notes: Mouse V regions of clone 12E12 with human constant regions; also called human-mouse chimeric 12E12 antibody
B2: human-mouse chimeric TNFR2 monoclonal antibody 27F6-hFc (antibody, V domains shown)
VH: EVQLQQSGTVLARPGASVKMSCKTSGYTFTSYWMHWVKQRPGQGLEWIGTIYPGNSDTSYNQKFKGKAKLTAVTSASTAYMELNSLTNEDSAVFYCTRENLLLRSYFFDYWGQGTTLTVSS
VL: DIVMTQSPASLAVSLGQRATISCKASQSVDYDGDSYLNWYQQKPGQPPKLLIYAASNLPSGIPARFSGSGSGTDFTLNIHPVEEEDAATYYCQQSNEDPRTFGGGTKLEIK
notes: Mouse V regions of clone 27F6 with human constant regions

Tests used:
[1] = target: T1, TNFR2-His (Sino Biological, 10417-H08H, …); assay: ELISA, plate coated with TNFR2-His (second test)
Outline: (§1)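 Antibodies were serially diluted and incubated on blocked ELISA plates coated with C-terminally His-tagged recombinant human TNFR2. Detection used an enzyme-labelled anti-IgG secondary antibody, TMB development and a microplate reader, and the dilution series gave the EC50.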

[2] = target: T2, human TNFR2 on the cell membrane; assay: flow cytometry, CHO-TNFR2 cells
Outline: (§2)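 Binding was measured by flow cytometry (Beckman CytoFLEX) on a CHO line stably overexpressing human TNFR2. Cells in 96-deep-well plates were exposed to serially diluted antibodies, washed and labelled with a fluorescent anti-IgG secondary antibody, and EC50 was determined across the dilutions.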

[3] = target: T2, human TNFR2 on the cell membrane; assay: flow cytometry on CHO-TNFR2 cells
Outline: as §2

[4] = target: T1, TNFR2-His (Sino Biological, 10417-H08H, …); assay: BLI, antibody captured on AHC probe, TNFR2 in solution
Outline: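 Antibodies at 50 nM in Q buffer were held on antibody-capture sensors, and the sensors were then moved into recombinant human TNFR2 diluted 2-fold in Q buffer, starting from 100 nM. Q buffer was 10 mM PBS pH 7.4 with 0.02% Tween 20 and 0.2% BSA. The work used bio-layer interferometry on an Octet in Basic Kinetics mode, and Kon, koff and Kd come from these kinetic association measurements.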

[5] = target: T1, TNFR2-His (Sino Biological, 10417-H08H, …); assay: ELISA, plate coated with TNFR2-His (first test)
Outline: as §1

[6] = target: T1, TNFR2-His (Sino Biological, 10417-H08H, …); assay: ELISA, coated TNFR2-His
Outline: as §1

[7] = target: T1, TNFR2-His (Sino Biological, 10417-H08H, …); assay: competition ELISA, coated TNFR2-His, biotin-labeled TNFα fusion protein at fixed concentration
Procedure: (§3) The ELISA plate was coated with TNFR2-His antigen (Sino Biological, 10417-H08H, Assessment #NP_001057.1. Met1-Asp257, with multi-histidine tags expressed on C-terminus) and blocked, added with the gradient diluted TNFR2 monoclonal antibodies and biotin-labeled TNFα fusion protein of fixed concentration for incubation, then added with the secondary antibody Ap-Strepavidin (Herobio, 510401) for incubation. After development, the detection was performed using microplate reader.

[8] = target: T1, TNFR2-His (Sino Biological, 10417-H08H, …); assay: competition ELISA on coated TNFR2-His against biotin-labeled TNFα fusion protein at fixed concentration
Procedure: as §3

[9] = target: T2, human TNFR2 on the cell membrane; assay: competition flow cytometry, TNFR2 positive cells, TNFα fusion protein at fixed concentration
Procedure: Purified anti-human TNFR2 human-mouse monoclonal antibodies were co-cultured with TNFR2 positive cells and stained. The antibody binding intensity was analyzed by flow cytometry. The specific steps are as follows: cells were counted, centrifugated, resuspended, then added to a 96-deep well plate, and the supernatant was discarded. Gradient diluted anti-TNFR2 antibodies and TNFα fusion protein of fixed concentration were added. After incubation and wash, the secondary antibody PE-streptavidin (Biogen, 405203) was added for incubation, and the samples were detected using Beckman CytoFLEX.

Binder | EC50 [1] | EC50 [2] [nM] | EC50 [3] [mg/L] | Kd [4] [nM] | koff [4] [s⁻¹] | kon [4] [M⁻¹ s⁻¹] | EC50 [5] | EC50 [6] [nM] | IC50 [7] [mg/L] | IC50 [8] | IC50 [9] [mg/L]
B1 | 0.0346 µg/mL and 0.232 nM | 0.195 | 0.0291 | 3.27 | 0.00216 | 659000 | 0.0454 µg/mL and 0.304 nM | 0.265 |  |  | 
B2 |  |  |  |  |  |  |  | 0.278 | 0.644 | 0.674 µg/mL and 4.52 nM | 0.179
